Results on 2 substances are retold here after paper PMC10434305.

Read-outs that look alike come from different tables or passages of the source.

The target in assay [1] is Arp3 L117C, C408A, C189A, C307A (subunit of human Arp2/3 complex for the crosslinking assay) (human) (UniProt P61158). Nature of the assay: cross-linking.
Assay [2] shares this target. Nature of the assay: cross-linking. The source holds these as a separate data set.
The target is the same in assay [3]. Nature of the assay: cross-linking. The source holds these as a separate data set.
Assay [4] has as its target Skeletal α-actin, monomeric (G-actin) (UniProt P68135). Nature of the assay: SEC. (SEC sorts molecules by how far they enter the pores of the column.)

In the case of “Arp2 L199C (subunit of human Arp2/3 complex for the crosslinking assay) (from UniProt P61160 1-394) (natural protein)”, the figures for the crosslinked fraction at plateau in assay [1], in assay [2] and in assay [3] were 14%, 34% and 34%, respectively.
Regarding “CapZ-CA hybrid heterodimer (CapZα-CA, CapZβ-CA) (from UniProt P52907;Q91YD9;P47756) (complex)”, the stoichiometry N (CapZ-CA:actin) in assay [4] was determined as 1.
